According to patent publication US20170015742A1 (published 2017):
Numbering of substitutions follows the chain as printed.

B1: hBEW-1E3.3 (antibody, V domains shown)
VH: EVQLVQSGAEVKKPGASVKVSCKASGYPFTNSGMYWVRQAPGQGLEWMGWINTEAGKPTYADDFKGRFTFTLDTSTSTAYLEIRSLRSDDTAVYYCARWGYISDNSYGWFDYWGQGTLVTVSS
VL: ETVLTQSPATLSLSPGERATLSCRASEGVYSYMHWYQQKPGQQPRLLIYKASNLASGVPARFSGSGSGTDFTLTISSLEPEDFAVYFCHQNWNDPLTFGQGTKLEIK
B2: hBEW-5C3.1 (antibody, V domains shown)
VH: EIQLVQSGSELKKPGASVKVSCKASGYTFTNYGVYWVKQAPGQGLEYMGWINTETGKPTYADDFKGRFVFSLDTSVSTAYLQISSLKAEDTAVYYCARARQLDWFVYWGQGTLVTVSS
VL: DTVLTQSPATLSLSPGERATLSCRARESLTTSLSWFQQKPGQQPRLLIYGASKLESGVPARFSGSGSGTDFTLTISSLEPEDFAVYFCQQSWYDPPTFGGGTKVEIK
B3: hBEW-5C3.2 (antibody, V domains shown)
VH: EIQLVQSGAEVKKPGSSVKVSCKASGYTFTNYGVYWVKQAPGQGLEYMGWINTETGKPTYADDFKGRFTFTLDKSTSTAYMELSSLRSEDTAVYFCARARQLDWFVYWGQGTLVTVSS
VL: B2 VL
B4: hBEW-5C3.3 (antibody, V domains shown)
VH: B3 VH with I2V, K38R, Y47W, F95Y
VL: B2 VL
B5: hBEW-5C3.4 (antibody, V domains shown)
VH: B2 VH
VL: DTQLTQSPSSLSASVGDRVTISCRARESLTTSLSWFQQKPGKQPKLLIYGASKLESGVPSRFSGSGSGTDFTLTISSLQPEDFATYFCQQSWYDPPTFGGGTKVEIK
B6: hBEW-5C3.5 (antibody, V domains shown)
VH: B3 VH
VL: B5 VL
B7: hBEW-5C3.6 (antibody, V domains shown)
VH: B3 VH with I2V, K38R, Y47W, F95Y
VL: B5 VL
B8: hBEW-9A8.17 (antibody, V domains shown)
VH: EIQLVQSGSELKKPGASVKVSCKASGYTFTNYGMYWVKQAPGQGLEYMGWINTETGKPIYADDFKGRFVFSLDTSVSTAYLQISSLKAEDTAVYYCARVDYDGSFWFAYWGQGTLVTVSS
VL: ETVLTQSPATLSLSPGERATLSCRASESVSTVIHWYQQKPGQQPRLLIHGASNLESGVPARFSGSGSGTDFTLTISSLEPEDFAVYFCQQHWNDPPTFGQGTKLEIK
B9: hBEW-9A8.20 (antibody, V domains shown)
VH: EIQLVQSGAEVKKPGASVKVSCKASGYTFTNYGMYWVKQAPGQGLEYMGWINTETGKPIYADDFKGRFTFTLDTSTSTAYMELRSLRSDDTAVYYCARVDYDGSFWFAYWGQGTLVTVSS
VL: B8 VL
B10: hBEW-9A8.21 (antibody, V domains shown)
VH: B9 VH with K38R, Y47W
VL: B8 VL
B11: hBEW-9E10.1 (antibody, V domains shown)
VH: EIQLVQSGSELKKPGASVKVSCKASGYTFTNYGMYWVKQAPGQGLEYMGWIDTETGRPTYADDFKGRFVFSLDTSVSTAYLQISSLKAEDTAVYFCARWSGDTTGIRGPWFAYWGQGTLVTVSS
VL: DIRMTQSPSSLSASVGDRVTIECLASEDIYSDLAWYQQKPGKSPKLLIYNANGLQNGVPSRFSGSGSGTDYSLTISSLQPEDVATYFCQQYNYFPGTFGQGTKLEIK
B12: hBEW-9E10.2 (antibody, V domains shown)
VH: EIQLVQSGAEVKKPGSSVKVSCKASGYTFTNYGMYWVKQAPGQGLEYMGWIDTETGRPTYADDFKGRFTFTADKSTSTAYMELSSLRSEDTAVYFCARWSGDTTGIRGPWFAYWGQGTLVTVSS
VL: B11 VL
B13: hBEW-9E10.3 (antibody, V domains shown)
VH: B12 VH with I2V, K38R, Y47W, F95Y
VL: B11 VL
B14: hBEW-9E10.4 (antibody, V domains shown)
VH: B11 VH
VL: B11 VL with E22T, S72T
B15: hBEW-9E10.5 (antibody, V domains shown)
VH: B12 VH
VL: B11 VL with E22T, S72T
B16: hBEW-9E10.6 (antibody, V domains shown)
VH: B12 VH with I2V, K38R, Y47W, F95Y
VL: B11 VL with E22T, S72T
B17: chBED-4G10-C8 (antibody, human IgG1, kappa, L234A L235A, V domains shown)
VH: QVQLQQSGTELVKPGSSVKISCKASGYTFTSNYMHWIRQQPGNGLEWIGWIYPGDGDTNYNHNFNGKATLTADKSSSTAYMQLSSLTSEDFAVYFCASSTRAIPGWFTYWGQGTLVTVSS
VL: DTVLTQSPALAVSPGERVSISCWASESVSTLMHWYQQKLGQQPKLLIYGASNLESGVPARFRGSGSGTDFTLTIDPVEADDTATYFCQQSWSDPYTFGAGTKLELKR
B18: chBEW-1B4 (antibody, human IgG1, kappa, L234A L235A, V domains shown)
VH: QIQLVQSGPELKKPGESVKISCKASGYSFTNYGMYWVKQAPGQGLQYMGWIDTETGKPTYTDDFKGRFVFFLETSASTAYLQINNLKNEDMATYFCARWSGDTAGIRGPWFAYWGQGTLVTVSS
VL: DIRMTQSPASLSASLGETVNIECLASEDIYSDLAWYQQKPGKSPQLLIYNANDLQKGVPSRFSGSGSGTQYSLKINSLQSEDVATYFCQQYNYYPGTFGAGTKLELKR
notes: also called chBEW-1B4-C4
B19: chBEW-1B10 (antibody, human IgG1, kappa, L234A L235A, V domains shown)
VH: EVQLVESGGGLVQPGRSLKLSCAASGFSFSKYDMAWFRQTPTKGLEWVASITTSGVGTYYRDSVKGRFTVSRDNAKSTLYLQMDSLRSEDTATYYCARGYGAMDAWGQGTSVTVSS
VL: DIQMTQSPASLSASLEEIVTITCKASQDIDDYLSWYQQKPGKSPQLVIYAATRLADGVPSRFSGSGSGTQYSLKISRLQVDDSGIYYCLQSSSTPWTFGGGTNLELKR
notes: also called chBEW-1B10-B9-C3
B20: chBEW-1E3 (antibody, human IgG1, kappa, L234A L235A, V domains shown)
VH: QIQLVQSGPELKKPGESVKISCKASGYPFTNSGMYWVKQAPGQGLQYMGWINTEAGKPTYADDFKGRFVFFLETSASTAYLQINNLKNEDMATYFCARWGYISDNSYGWFDYWGQGTLVTVSS
VL: DTVLTQSPALAVSPGERVSISCRASEGVYSYMHWYQQNPGQQPKLLIYKASNLASGVPARFSGSGSGTDFTLTIDPVEADDTATYFCHQNWNDPLTFGSGTKLEIKR
notes: also called chBEW-1E3-D6
B21: chBEW-3A1 (antibody, human IgG1, kappa, L234A L235A, V domains shown)
VH: QVQLEQSGAELVKPGTSVKLSCMASGYTSSSNHMNWMKQTTGQGLEWIGIINPGSGGTRYNVKFEGKATLTVDKSSSTAFMQLNSLTPEDSAVYYCARAGFPGPFSYYAMGAWGQGTSVTVSS
VL: DIQMTQSPPVLSASVGDRVTLSCKASQNIHNNLDWYQQKHGEAPKLLIFYTNNLQTGIPSRFSGSGSGTDYTLTISSLQPEDVATYYCYQYNSGYTFGAGTKLELKR
notes: also called chBEW-3A1-D10-G9
B22: chBEW-5C3 (antibody, human IgG1, kappa, L234A L235A, V domains shown)
VH: QIQLVQSGPELKKPGESVKISCKASGYTFTNYGVYWVKQAPGQGLQYMGWINTETGKPTYADDFKGRFVFFLETSTNTAYLQINNLKNEDMATFFCARARQLDWFVYWGQGTLVTVSS
VL: DTVLTQSPALTVSPGERVSISCRARESLTTSLCWFQQKPGQQPKLLIYGASKLESGVPARFSGSGSGTDFTLTIDPVEADDTATYFCQQSWYDPPTFGGGTKLELKR
notes: also called chBEW-5C3-E7
B23: chBEW-8E6 (antibody, human IgG1, kappa, L234A L235A, V domains shown)
VH: QIQLVQSGPELKKPGESVKISCKASGYTFTDYAMHWVKQAPGKVLKWMGWINTFTGKPTYIDDFKGRFVFSLEASASTANLQISDLKNEDTATYFCARGNYYSGYWYFDFWGPGTMVTMSS
VL: DIQMTQSPASLSASLGETISIECRASEDISSNLAWYQQKSGKSPQLLIFAANRLQDGVPSRFSGSGSGTQFSLKISGMQPEDEGDYFCLQGSKFYTFGAGTKLELKR
notes: also called chBEW-8E6-E4

Target: Human VEGF-A 165 (human, UniProt P15692 207-395)
Assay: cell-based or functional assay
Target sequence in this assay (P15692 other isoform, or with tags, fused parts or gaps limits assumed): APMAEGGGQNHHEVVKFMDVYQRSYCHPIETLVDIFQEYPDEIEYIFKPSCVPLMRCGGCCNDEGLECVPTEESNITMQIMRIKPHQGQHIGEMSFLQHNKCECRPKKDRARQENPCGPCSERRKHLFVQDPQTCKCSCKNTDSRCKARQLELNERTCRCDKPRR

| Binder | hVEGF165 IC50 (nM), HMVEC-d proliferation [nM] |
| --- | --- |
| B1 | 0.205 |
| B2 | 0.071 |
| B3 | 0.162 |
| B4 | > 2 |
| B5 | 0.098 |
| B6 | 0.123 |
| B7 | > 2 |
| B8 | 0.059 |
| B9 | 0.064 |
| B10 | 0.09 |
| B11 | 0.064 |
| B12 | 0.181 |
| B13 | 0.062 |
| B14 | 0.071 |
| B15 | 0.229 |
| B16 | 0.068 |

Target: T1, Human VEGF-A 165 (human, UniProt P15692 207-395)
T1 construct: Recombinant human VEGF165; also called huVEGF-A165; hVEGF165
Assay: SPR (Biacore), antibody captured by anti-human Fc, hVEGF165 as analyte
Experimental: For example, approximately 9000 RU of goat anti-human Fc specific polyclonal antibody (Thermo Fisher Scientific Inc., Rockford, Ill.) diluted in 10 mM sodium acetate (pH 4.5) is directly immobilized across a CM5 research grade biosensor chip using a standard amine coupling kit according to manufacturer's instructions and procedures at 25 μg/ml. Unreacted moieties on the biosensor surface were blocked with ethanolamine. For kinetic analysis, rate equations derived from the 1:1 Langmuir binding model were fitted simultaneously to multiple antigen injections (using global fit analysis) with the use of Scrubber 2 (BioLogic Software), Biacore Biaevaluation 4.0.1 software or Biacore T100 Evaluation software. Purified antibodies or DVD-Ig molecules were diluted in running buffer for capture across goat anti-human Fc reaction surfaces. Antibodies or DVD-Ig molecules to be captured as a ligand (1 μg/ml) were injected over reaction matrices at a flow rate of 10 μl/minute. During the assay, all measurements were referenced against the capture surface alone (i.e., with no captured antibody or DVD-Ig molecule). […] The equilibrium dissociation constant KD (M) of the reaction between antibodies and the target antigen was then calculated from the kinetic rate constants by the following formula: KD=Koff/Kₒₙ. Binding was recorded as a function of time and kinetic rate constants were calculated.
T1 sequence (P15692 other isoform, or with tags, fused parts or gaps): as the sequence (P15692 other isoform, or with tags, fused parts or gaps limits assumed) above

| Binder | Kd [nM] | kon [M⁻¹ s⁻¹] |
| --- | --- | --- |
| B17 | 0.59 | 1e+07 |
| B18 | 0.011 | 1.1e+07 |
| B19 | 0.0094 | 5.5e+06 |
| B20 | 0.011 | 7.2e+06 |
| B21 | 0.023 | 3.5e+07 |
| B22 | 0.012 | 6.8e+06 |
| B23 | 0.016 | 6.2e+06 |
